1 substance from US20170014494A1 can be followed below.

For the assay, the target named is SERCA2a wild type (WT), expressed from a plasmid in HEK293 cells. The assay is described as follows: cell-based or functional assay.

“flag-tagged SUMO1 (from UniProt P63165 2-97)” returned an EC50 (Ca2+) of ATPase activity of WT SERCA2a with co-expression of SUMO1 of 110 nM.
